For series [1], the system named is CopR (CgtR9) response regulator, preincubated with acetylphosphate (Corynebacterium glutamicum ATCC 13032). The experiment in a line: EMSA. Conditions: 50 mM Tris-HCl pH 7.5, 50 mM KCl, 10 mM MgCl2, 0.5 mM EDTA, 10% glycerol, room temperature 30 min; 50 mM acetylphosphate preincubation (60 min) for P2; DNA …. (In general: Mobility shift assays separate free from complexed probe on a gel.)

The test system of series [2] is CopR (CgtR9) response regulator, unphosphorylated (Corynebacterium glutamicum ATCC 13032). The series can be described thus: EMSA. The conditions noted are these: unphosphorylated; apparent Kd; 50 mM Tris-HCl pH 7.5, 50 mM KCl, 10 mM MgCl2, 0.5 mM EDTA, 10% glycerol, room temperature 30 min; 50 mM acetylphosphate preincubation (60 min) for P2; DNA ….

This note sets out measurements from paper PMC3140484.

In the case of copR promoter Kd probe, 90 bp, the Kd in series [1] was determined as 400 nM; in series [2], 2300 nM.
